This experiment deals with PfBDP1-BRD (residues 303–488 or 333–456), bromodomain of P. falciparum Bromodomain Protein 1, as used in ITC (P. falciparum) (UniProt Q8IJ72). Put plainly: ITC; histone peptide (2.5–5.0 mM) in the syringe, PfBDP1-BRD (303–488 or 333–456; 100–200 μM) in the sample cell; 5°C; 20 mM sodium phosphate pH 7.5, 150 mM NaCl, 1 mM TCEP; 1:1 binding model, single set of identical sites. (In ITC the heat of successive injections is recorded.)

No end group written: not given here.

What is called Kd is the concentration at which binding is half-saturated. Read a low Kd as a tighter complex. As a reminder, the stoichiometry N is the number of molecules, sites or subunits per partner or assembly. For the molecule SGK(Ac)GPAQK(Ac)SQAAK(Ac)K(Ac)TAGK(Ac)TLGPR [H2B.ZK3acK8acK13acK14acK18ac histone peptide, penta-acetylated histone H2B.Z], the Kd was determined as 1300 µM and the stoichiometry N came to 1.

The record behind these values is article PMC10093686, “Structural insights into acetylated histone ligand recognition by the BDP1 bromodomain of Plasmodium falciparum” (International journal of biological macromolecules, 2022).
